Article doi:10.1101/705442

Biological target: extracellular matrix proteins (ELISA of Figure S3: 'In each case')
Assay: ELISA

capillary morphogenesis gene 2 (ANTXR2/CMG2), biotinylated CMG2-AviTag construct (from UniProt P58335 34-489) (receptor)
Kd: 500 to 1000 nM
